The nanobody polyreactivity screen of Harvey et al. (2022)

assay: yeast display, Sf9 membrane polyspecificity reagent, FACS + sequencing; frameworks hold sequencing errors
How it was run: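 Sorting gates, low and high (top ~1%), were placed on anti-HA fluorescence to track expression and on streptavidin fluorescence to track reagent binding. A clone's polyreactivity label is taken from the gate it came out of. The reagent was 10% biotinylated, detergent-solubilized Sf9 membrane, applied for 1 hour at 4 °C to galactose-induced yeast display cells.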

Row | Sequence | polyreactivity (PSR sort gate)
1 | QVQLVESWGGLVQAGGSLRLSCAASGITFDGYDMGWYRQAPGKERELVATIDSGGITYYADSVKGRFTISRDNAKNTVYLQMNSLKPEDTAVYYCNADEWYYNFDIVEFDYWGQGTQVTVSS | low polyreactivity
2 | QVQLVESWGGLVQAGGSLRLSCAASGLIFYYNAMAWYRQAPGKERELVAAISRRGGGTYYADSVKGRFTISRDNAKNTVYLLMNSLKPEDTAVYYCAAGSPFSPGKYDYWGQGTQVSVSS | high polyreactivity
3 | QVQLVESWGGLVQAGGSLRLSCAASGLTFETYVMGRYRQAPGKEREFVAAISSSGRTYYADSVKGRFTISRDNAKNTVYLQMNSLKPEDTAFYYCAARGREFGYWGQGTQVTVSS | high polyreactivity
4 | QVQLVESWGGLVQAGGSLRLSCAASGMGRYRQAPGKERELVAAINWSGGNTYYADSVKGRFTISRDNAKNTVYLQMNSLIPEDTAVDYCNAVVWVEVPGDYWGQGTQVTVSS | low polyreactivity
5 | QVQLVESWGGLVQAGGSLRLSCAASGRIFKRNTMGWNRQAPGKQRELVAAITGSSGSTYYADSVKGRFTNSRDNAKNTVYLQMNSLKPEDTAVYYCNTVRSVYQYWPYNYWGQGTQVTVSS | high polyreactivity
6 | QVQLVESWGGLVQAGGSLRLSCAASGRIFRGYAMGWYRQAPGKERELVAVISYSGTRTYYADSVKGRFTISRDNAKNTVYLQMNSLKPEDTAVYYCNARANGFKDGYWGQGTQVTVSS | high polyreactivity
7 | QVQLVESWGGLVQAGGSLRLSCAASGRIFVKYAMGWYRQAPGKERELVAAISWIGGSTYYADSVKGRFTISRDNAKNTVYLQMNSLKPEDTAVYYCAAQGKDYEASPGYDGGRNYWGQGTQVTVSS | low polyreactivity
8 | QVQLVESWGGLVQAGGSLRLSCAASGRTFKIYTMGWYRQAPGKERELVAAISRGGSTYYADSVKGRFTISRDNAKNTVYLQMNSLKPEDTAVYYCAVDLYYLSSASTRQVRRDYWGQGTQVTVSS | high polyreactivity
9 | QVQLVESWGGLVQAGGSLRLSCAASGSIFAINAMGWYRQAPGTERELVAAIRSGGRTYYADSVKGRFTISRDNAKNTVYLQMNSLKPEDTAVYYCNAGGKWIGSDYCGQGTQVTVSS | high polyreactivity
10 | QVQLVESWGGLVQAGGSLRLSCAASGSIFRPYAMGWYRQAPGKERELVAAISSSGGSTYYADSVKGRFTISRDNAKNTVYLQMNSLKPEDTAVYYCAAESRSTWIHSRDYWGQGTQVTVSS | low polyreactivity
11 | QVQLVESWGGLVQAGGSLRLSCAASGSIFYSNAMGWYSQAPGKERELVAAIRTSAGSTYYADSVKGRFTISRDTAKNTVYLQMNSLKPEDTAVYYCAAVTTYYYYDVSDYAYEFYYWGQGTQVTVSS | low polyreactivity
12 | QVQLVESWGGLVQAGGSLRLSCAASGSTFDVNAMGWYRQAPGKERELVAAISWNSGSTYYADSVKGRFTISRDNAKNTVYLQMNSLKPEDTAVYYCAARNPFNHPLDYWGQGTQVTVSS | high polyreactivity
13 | QVQLVESWGGLVQAGGSLRLSCAASGSTFQPYAMGWYRQAPGKERELVAAIRSIAGSTYYADSVKGRFTISRDNAKITVYLQMNSLKPEDTAVYYCAADWWRVEMDYWGQGTQVTVSS | low polyreactivity
14 | QVQLVESWGGLVQAGGSLRLSCAASGSTFVKNAMGWYRQAPGKERELVAAISYRGGRTYYADSVKGRYTISRDNAKNTVYLQMNSLKPEDTAVYYCNARYRTPSFIRMGYWGQGTQVTVSS | high polyreactivity
15 | QVQLVESWGGLVQAGGSLRLSCAASGSTIDTNTMGWYRQAPGKEREWVAAITWSDASTYADSVKGRFTISRDNAKNTVYFQMNSLKPEDTAVYYCNADWTITVGYDYWGQGTKVTVSS | low polyreactivity
16 | QVQLVESWGGLVQAGGSLRLSCAASGSTLGNNGMGWYRQAPGKERELVAAIDSTVTTNYADSVKGRFTISRDNAKKSVYLHMNSLKPEDTAVYYCAADYWGQGTQVTVSS | low polyreactivity
17 | QVQLVESWGGLVQAGGSLRLSCADSGRIFLRNTMGWYRQAPGKERELVATISKSAGSTYYADSVKGRFTISRDNAKNSVYLQMNSLKPEDTAVYYCATSRYLKLGYDYWGQGTQVTVSS | high polyreactivity
18 | QVQLVESWGGLVQAGGSLRLSCADSGSTFNVNAMGWYSQAPGKESELVATITESGGRTYYADSVKGRFTISRDYAKNNVYLQMNSLKPEDTAVYYCARGDAWTFDYEPYDYWGQGTQVTVSS | low polyreactivity
19 | QVQLVESWGGLVQAGGSLRLSCASSGITFSPYALGWYRQAPGKERELVAAISSRGGSTYYADSVKGRFTISRDNAKNTVYFQMNSLKPEDTAVFYCNALTFVRYLFHYTYWGQGTQVTVSS | high polyreactivity
20 | QVQLVESWGGLVQEGRSLRLSCAASGYTFQRYNIRWYRPAPGKERELVAAINWSGGSTYYADSVKGRFTISRDNAMNTVYLQMIWLKPEDTAVYYFSRRYRDYGGYGYWGQGTQVSVSS | high polyreactivity
21 | QVQLVESWGGLVQSGGSLRLISAASGRTYYYYVMGCYRQAPGKERDLVATINSGASTYYADSVKGRFTISRDNAKNTVYLQMNSLNPEDTAVYYCAACVLRRIAGVRYRYGFWGQGTQVTVSS | high polyreactivity

Row | Sequence | polyreactivity (PSR sort gate)
22 | QVQLVETAGGLVQAGASLRLSSAASGITFAYYAMGWYRQAPAKERELVAAISSSGGSTYYADSVKGRFTISRDNAKNTVYLQLNSLNPEDTAVYYCAVDYSYWVEYWGLGTQVTVSS | high polyreactivity
23 | QVQLVETAGGLVQAGGSLRLSSAASGRTFTLNAMGWYRQAPGKERELVATISRRGGSTYYADSVKGRFTISRDNAKNTVYLQMNSLNPEDTAVYYCNAGSSVLKYDYWGQGTEVTVSS | low polyreactivity
24 | QVQLVETGGALVQAGGSLRLSCAASGYTFYRYAMGWYRQATGKERELVAAISYSGGRTYYADSVKGRFTISCDIAKNTVYLQMNSLKPEDTAVYYCNARASYGHQGRLGYARLYYWGQGTQVTVSS | high polyreactivity
25 | QVQLVETGGCLVQAGGSLRLSCAASGFTFRGYAMGWYRQAPGKERELVAAITAGGGSTSYADSVKGRFTISRDNAKNTVYLLMNSLKPEDTAVYYCAKDRYYGYFRSRSDYWGQGTQVTVSS | high polyreactivity
26 | QVQLVETGGCLVQAGGSLRLSCAASGSTLHYYAMGWSRQAPGKQREFVAGISRYGGRTYNADSVKGRFTISRDNAKNTVYLQMNSLKPEDTAVYYCNAVLVGYRPYREFDHWGQGTQVTVSS | high polyreactivity
27 | QVQLVETGGGIVQAGGSLRLSCAAYGRILWYYAMGWYRQAPGKERELVAAITSGGSTYYADSVKGRFTLSRDIAKNTVYLQMNSLKPEDTAVYYCNAYYTYRFNYWGQGTQVTVSS | high polyreactivity
28 | QVQLVETGGGLDQAGGSLRLRCAASGSIFLIYGMGWYRQAPGKERELDAAITARCGSTYYADSVKGRFTISRDNAKNTVYLLMNSLKPEDTAVYYCAADEYEALGKFQPYQFDYWGQGTQVTVSS | low polyreactivity
29 | QVQLVETGGGLDQAGGSLRLSCAASGRTSRYAMGWYRQAPGKEMELVAAISRNGRTTSYADSVKGRFTISRDNAKNTVYLQKNSLKPEDTAVDYCNAYSAFVPPTRGYYWGQGTQVTVTS | high polyreactivity
30 | QVQLVETGGGLFHAGGSLRLSCAASGRIFVGYAMGWYIQAPGKERELVAAINSGGRTNYADSVKGRFTISRYNAKNNVYLQMNSLKPEDTAVYYCAATLRPYSSFPNRYGYWGQGTQVTVSS | low polyreactivity
31 | QVQLVETGGGLVHAGGSLRISCAASGLTFRGNAMGWYRQAPGKERELVATISSGGITNYADSVKGRFTISRDNAKNTVYLQMNSLKPEDTAVYYCAADWFVHKPRYQNSFDYWGQGTQVTVSS | low polyreactivity
32 | QVQLVETGGGLVHAGGSLRLSCAASGSIFGYYTMGWYIQAPGKERELFAAITYSGGSTYYADSVKGRFTISRDNAKNTVYLQMNSLKPDDTAVYYCNAKSAAHRYVRRHDYWGQGTQVTVSS | low polyreactivity
33 | QVQLVETGGGLVKAGGSLRLSCAASGRTFGKYAMGWYRQETGKESELVAAITTRVVITYYADSVKGRFTISRDNAKNTVYLQMNSLKPEDTAVYYCAADPEKNYRPFNHYYYWGQGTQVTVSS | low polyreactivity
34 | QVQLVETGGGLVQAGCSLRLSCAASGSIFSYYAMGWSRQAPGKERELVAGITGSGGSTYADSVKGRFTISRDNAKNTVYLQMNSLKPEDTAVYYCAADLQRYWWWYEYWGQGTQVTVSS | high polyreactivity
35 | QVQLVETGGGLVQAGGILRLSCAASGSTFGYNAMGWYRQAPGKERELVASITWSSGSTYYADSVKGRFTISRDNAKNTVYLQMNSLKPEDSAVYYCYAKRFRHYGGYYYWGQGTQVTVSS | low polyreactivity
36 | QVQLVETGGGLVQAGGRLRLSCAASGSTFKNNAMGWSRQAPGKEREFVAGITRRGTSTYYADSVKGRFTISRDNAKNTVYLQMNSLKPEDTAVYYCNARLRARSTIKLDYWGQGTQVTVSS | high polyreactivity
37 | QVQLVETGGGLVQAGGSHRLSCAASGLTFYTYAMGWYRQAPGKERELVAAISTNGGSKYYADSVKGRFTISRDNAKNTVYLQRNCLKPEDTAVYYCAIEGGTYRIFNYWGQGTQVTVSS | low polyreactivity
38 | QVQLVETGGGLVQAGGSHRLSCAASGSTFDAYAMGWYRQAPGKETELVAGISIVGSTNYADSVKGRFTISRDNAKNTVYLKMNSLKPEDTAVLYCAADRDWQYSFRPSVYGYDYVYWGQGTQVTVSS | low polyreactivity
39 | QVQLVETGGGLVQAGGSLRLSCAASGFIFPGNMGWDRQAPGKDRELVAAISWSGGSTRYADSVKGRFTISRDNAKNTVYLQMNSLKPEDTAVYYCAASLSGKRFTKRYYWGQGTQVTVSS | high polyreactivity
40 | QVQLVETGGGLVQAGGSLRLSCAASGFIFVLNAMGWDRQAPGKEMEFVAAITRSGGSTYYADSVKGRFTISRDNAKNNVYLPMNSLKPEVTAVYYCAVLYHSRDRYTYRDEDYWGQGTQVTVSS | low polyreactivity
41 | QVQLVETGGGLVQAGGSLRLSCAASGFIGSNTMGWYRQAPGKERELVAAISWSGGSTYYADSVKGRFTISRDNAKNTVYLQMNSLKPEDSAVYYCAARRNSRARRTFGYWGQGTQVSVSS | high polyreactivity
